The supplement of paper PMC10126150
± gives the standard deviation of the averaged measurements.

test system: ATP; assay: switch fluorescence ratio, 500 uM ATP over buffer (Cy3 cluster intensity, sum of 5 cycles each) (fold (ratio)); higher = stronger signal-on switching upon ATP binding; sequences stand for … in TCGTCGGCAGCGTCAGATGTGTATAAGAGACAGTTTTTTTTTTTTTTTTTTTTTTTTT…TC; details: aptamer strand: ATP DNA aptamer (quencher-CACCTGGGGGAGTATTGCGGAGGAAGG + anchor), 100 nM annealed; ATP concentration: 500 uM
Method in brief: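 Per cluster, summed Cy3 intensity from the target cycles was divided by that from the buffer cycles to give the fluorescence ratio, then averaged per switch-domain sequence. Clusters outside 100-1000 RFU were excluded. The Cy3-labelled switching-strand clusters, on a modified Illumina MiSeq flow-cell, were annealed to 100 nM quencher-labelled ATP aptamer and imaged in selection buffer, then after 15 min with 500 uM ATP at 22 °C, for five cycles with NaOH stripping and re-annealing between them.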
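Further: ATP exposure 15 min at 22 °C before imaging.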

Sequence	switch fluorescence ratio
TGATGCAAGA	1.3 ± 0.063
TGATGCATGG	1.05 ± 0.048
TGATGGAGTA	0.969 ± 0.016
TGATGGCAAC	1.11 ± 0.036
TGATGGGGCG	0.982 ± 0.023
TGATGGGTC	0.9961 ± 0.0054
TGATGGTGC	1.05 ± 0.066
TGATGTGGGA	1.027 ± 0.0047
TGATGTTAAA	0.998 ± 0.01
TGATGTTATA	0.968 ± 0.022
TGATTAAGAT	0.994 ± 0.026
TGATTAGAGG	1.02 ± 0.1
TGATTATCTT	1.047 ± 0.0097
TGATTATTT	0.978 ± 0.032
TGATTCCGCT	1.41 ± 0.025
TGATTCCTGC	1.02 ± 0.039
TGATTCGAGC	1.003 ± 0.0058
TGATTCGGGT	0.984 ± 0.029
TGATTCGTTT	0.985 ± 0.094
TGATTGGTAA	0.939 ± 0.021
TGATTGTATC	0.981 ± 0.055
TGATTGTGTA	0.987 ± 0.048
TGATTGTTTG	1.01 ± 0.034
TGATTTAATA	0.984 ± 0.025
TGATTTATG	1.01 ± 0.002

Sequence	switch fluorescence ratio
TGATTTATTC	0.9632 ± 0.0032
TGATTTGGAC	1.01 ± 0.061
TGATTTTCTC	1.01 ± 0.048
TGATTTTGCC	1.01 ± 0.018
TGATTTTTGT	0.997 ± 0.021
TGCAAAAAGG	1.03 ± 0.014
TGCAAATTGC	0.997 ± 0.019
TGCAACCTCC	2.29 ± 1.1
TGCAAGGGCG	0.981 ± 0.021
TGCAATGATG	1.04 ± 0.039
TGCAATGGGC	1.21 ± 0.086
TGCAATGGGG	1.12 ± 0.07
TGCAATTCGT	1.13 ± 0.033
TGCAATTTCG	1.07 ± 0.065
TGCAATTTTA	1.03 ± 0.023
TGCACGATTG	1.03 ± 0.03
TGCACGGCTT	1.13 ± 0.03
TGCACTAGAA	1.01 ± 0.017
TGCAGATCGG	0.9927 ± 0.0028
TGCAGATTTT	0.994 ± 0.033
TGCAGCATCT	1.13 ± 0.032
TGCAGCTTGC	1.25 ± 0.24
TGCAGGAATT	1.09 ± 0.17
TGCAGGGGTT	1.05 ± 0.02
TGCAGTGGGG	1.014 ± 0.0085

Sequence	switch fluorescence ratio
TGCATATAAT	1.018 ± 0.0014
TGCATATATA	1.29 ± 0.36
TGCATGTCTC	1.43 ± 0.46
TGCATGTCTT	0.998 ± 0.033
TGCATTAATG	0.989 ± 0.012
TGCATTAGGG	0.993 ± 0.046
TGCATTCAGG	1.02 ± 0.03
TGCATTCTTT	0.9999 ± 0.0052
TGCATTTATG	1.02 ± 0.043
TGCCAAGGTT	1.02 ± 0.034
TGCCACTCTG	1.025 ± 0.008
TGCCAGTGTT	1.22 ± 0.32
TGCCAGTTTG	0.9907 ± 0.0065
TGCCATAATG	1.02 ± 0.0057
TGCCCATGGG	0.9956 ± 0.0045
TGCCCTATTT	0.986 ± 0.025
TGCCCTGCCT	1.03 ± 0.024
TGCCGACGGG	1.01 ± 0.019
TGCCGGAAGA	1.02 ± 0.029
TGCCGGATTT	1.02 ± 0.018
TGCCGGCTCG	1.01 ± 0.012
TGCCGGTTTT	1.01 ± 0.036
TGCCTATTTC	1.02 ± 0.017
TGCCTCAGGG	1.08 ± 0.021
TGCCTTATTA	1.035 ± 0.0067

Sequence	switch fluorescence ratio
TGCCTTTTCG	1.02 ± 0.057
TGCGAAAATT	1.01 ± 0.08
TGCGAATTCT	1.03 ± 0.011
TGCGAATTGT	1.01 ± 0.012
TGCGACATGT	0.969 ± 0.027
TGCGAGAAGG	0.999 ± 0.011
TGCGCAAAAG	1.01 ± 0.012
TGCGCATCTA	1.038 ± 0.0098
TGCGCCAACT	1.06 ± 0.011
TGCGCCCGGC	1.031 ± 0.0027
TGCGCCCGGG	1.033 ± 0.0076
TGCGCCGTGG	1.02 ± 0.02
TGCGCTACGG	1.08 ± 0.039
TGCGGAAGTT	1.01 ± 0.023
TGCGGAGGGC	1.01 ± 0.043
TGCGGATGTT	0.953 ± 0.013
TGCGGCGGGT	1.04 ± 0.012
TGCGGGAAGT	1 ± 0.014
TGCGGGACT	2.28 ± 1.8
TGCGGGATGA	1.04 ± 0.018
TGCGGGCAAT	1.1 ± 0.039
TGCGGGGAGC	0.975 ± 0.041
TGCGGGGGAT	1.02 ± 0.033
TGCGGGGGTT	1.02 ± 0.03
TGCGGGGTCG	1.01 ± 0.016

Sequence	switch fluorescence ratio
TGCGGGTGTG	1.03 ± 0.021
TGCGGTAAAA	1.03 ± 0.063
TGCGGTTTAG	1.04 ± 0.016
TGCGTCAGGG	0.974 ± 0.015
TGCGTCTTTG	1.01 ± 0.034
TGCGTGCTGG	0.985 ± 0.022
TGCGTTATAA	1.02 ± 0.022
TGCGTTGGGG	0.981 ± 0.019
TGCGTTTGGG	1.05 ± 0.064
TGCGTTTTTA	1 ± 0.043
TGCTAAATTA	1.01 ± 0.011
TGCTAATAGT	1.028 ± 0.0074
TGCTACAGGT	1.04 ± 0.022
TGCTAGACTG	1.03 ± 0.09
TGCTAGTTT	0.98 ± 0.015
TGCTATATGG	0.994 ± 0.022
TGCTATGAGG	1.01 ± 0.043
TGCTCACGGT	1.02 ± 0.041
TGCTCCTAAC	1.3 ± 0.051
TGCTGAGGGC	1.01 ± 0.013
TGCTGCAGTG	0.966 ± 0.024
TGCTGCGCTT	1.14 ± 0.081
TGCTGCTCAG	1.01 ± 0.032
TGCTGCTCGG	0.973 ± 0.031
TGCTGCTTTT	0.943 ± 0.036

Sequence	switch fluorescence ratio
TGCTGGCATG	0.967 ± 0.014
TGCTGGGGGA	1.01 ± 0.025
TGCTGGTATA	0.983 ± 0.038
TGCTGGTTGG	0.998 ± 0.026
TGCTGGTTTT	1.01 ± 0.037
TGCTGTGTTT	1.02 ± 0.039
TGCTGTTGTA	0.998 ± 0.033
TGCTGTTTAC	1.2 ± 0.28
TGCTTACTTT	1.33 ± 0.58
TGCTTCCGAA	1.52 ± 0.082
TGCTTCTAAC	1.006 ± 0.0082
TGCTTGCTTT	1.004 ± 0.01
TGCTTGGCTA	0.98 ± 0.033
TGCTTTGGGG	0.982 ± 0.071
TGCTTTTTAA	1.03 ± 0.063
TGGAAAAACT	1.08 ± 0.029
TGGAAACCGG	1.009 ± 0.0055
TGGAAAGGGG	1.01 ± 0.014
TGGAAAGTGT	0.987 ± 0.018
TGGAAATAAG	1.03 ± 0.047
TGGAAATTGG	1.01 ± 0.02
TGGAAATTGT	0.9944 ± 0.0077
TGGAAATTTT	1 ± 0.038
TGGAAGCGTC	1.02 ± 0.022
TGGAAGGGAG	0.9738 ± 0.0083

Sequence	switch fluorescence ratio
TGGAAGGGGA	1 ± 0.013
TGGAAGGGGC	1.04 ± 0.035
TGGAAGTTGG	0.989 ± 0.023
TGGAATAATT	1.003 ± 0.0081
TGGAATACG	1.35 ± 0.036
TGGAATATTC	1.04 ± 0.011
TGGAATATTT	1.03 ± 0.044
TGGAATGTTG	1.02 ± 0.0078
TGGAATTCGG	1.02 ± 0.0061
TGGAATTGTG	1.05 ± 0.058
TGGACAACTT	0.995 ± 0.025
TGGACCAAAA	1.03 ± 0.013
TGGACCGGTT	1.034 ± 0.0016
TGGACGCGCT	1.01 ± 0.025
TGGACGGGTT	1.02 ± 0.014
TGGACGTCGT	0.987 ± 0.019
TGGACGTGGG	0.98 ± 0.052
TGGACGTTGC	1.03 ± 0.012
TGGACTAGAA	0.983 ± 0.042
TGGACTCTGG	0.973 ± 0.02
TGGACTTAGG	0.987 ± 0.03
TGGAGAGGGA	0.9805 ± 0.0078
TGGAGAGGGT	0.976 ± 0.0099
TGGAGAGGTG	1.02 ± 0.083
TGGAGCTGCA	1.04 ± 0.09

Sequence	switch fluorescence ratio
TGGAGCTTGA	1.02 ± 0.021
TGGAGGAGGG	1 ± 0.032
TGGAGGATTG	0.991 ± 0.016
TGGAGGGCTT	1.04 ± 0.021
TGGAGGGGAG	0.9858 ± 0.0062
TGGAGGGGTT	1.02 ± 0.037
TGGAGTTTTT	0.985 ± 0.032
TGGATACACT	1.04 ± 0.032
TGGATAGTGT	0.998 ± 0.011
TGGATATAGG	1.03 ± 0.038
TGGATATTTG	0.983 ± 0.065
TGGATCCCCA	1.06 ± 0.091
TGGATGAGCT	0.9968 ± 0.0088
TGGATGCTTG	1.01 ± 0.045
TGGATGGAAT	0.961 ± 0.035
TGGATGTATT	1.28 ± 0.4
TGGATGTTTA	1.03 ± 0.024
TGGATTATTG	0.9445 ± 0.0019
TGGATTGAGC	0.967 ± 0.026
TGGATTTTGC	0.989 ± 0.029
TGGCAACACC	1.94 ± 1.2
TGGCAATGGG	1.05 ± 0.017
TGGCAGGGGT	1.56 ± 0.63
TGGCAGGTTG	1.01 ± 0.013
TGGCCCCTAT	0.962 ± 0.029
